This is an account of results in patent US20240108766A1 (Bayer, published 2024).

By Kd is commonly meant the equilibrium constant for the complex coming apart.

Test [1] has as its target T1, human LRRC15 extracellular domain with C-terminal His tag (human, UniProt Q8TF66 22-538).
T1 construct: Recombinant, made in HEK293; the entry holds the extracellular domain and the His tag; SPR analyte; also called TPP-1545; hLRRC15 CT-His
T1 sequence: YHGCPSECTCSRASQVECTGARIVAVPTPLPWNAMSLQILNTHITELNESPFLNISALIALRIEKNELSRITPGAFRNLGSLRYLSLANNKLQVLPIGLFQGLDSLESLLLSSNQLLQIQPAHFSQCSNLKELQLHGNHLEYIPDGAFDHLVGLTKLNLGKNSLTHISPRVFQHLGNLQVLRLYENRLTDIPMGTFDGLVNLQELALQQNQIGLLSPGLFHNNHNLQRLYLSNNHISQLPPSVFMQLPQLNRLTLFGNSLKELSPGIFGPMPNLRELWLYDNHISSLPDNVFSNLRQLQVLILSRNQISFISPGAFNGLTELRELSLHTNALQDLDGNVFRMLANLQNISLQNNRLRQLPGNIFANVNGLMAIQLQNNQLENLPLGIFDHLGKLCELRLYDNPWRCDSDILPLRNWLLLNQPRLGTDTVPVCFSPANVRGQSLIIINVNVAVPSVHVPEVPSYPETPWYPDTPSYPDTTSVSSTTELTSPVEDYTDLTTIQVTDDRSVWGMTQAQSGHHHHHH
The test is described as follows: SPR Biacore T200, antibody captured, LRRC15 analyte, 10°C. As to the method: (§1) To assess if anti-LRRC-15 antibodies show a difference in binding at different temperatures, binding assays were conducted using surface plasmon resonance (SPR). Binding assays were performed on a Biacore T200 instrument at temperatures of 10° C., 20° C., 25° C. and 37° C. with assay buffer HBS EP+, 1 mg/ml BSA (bovine serum albumine), 300 mM NaCl, 0.05% NaN₃. Antibodies were captured via anti-human Fc IgGs covalently amine coupled to a CM5 sensor chip and human LRRC15 was used as an analyte in a concentration series from 1.56-200 nM in multi cycle kinetics mode. Pre-experiments were conducted to have an equal capture level at each temperature. Obtained sensorgrams were fitted to a 1:1 Langmuir binding model to derive kinetic data.
In general terms: SPR reads the build-up and loss of mass on a sensor chip optically.

In test [2] the target is T1, human LRRC15 extracellular domain with …. Kind of test: binding of the purified IgG, method not given.
The target is the same in test [3]. The test is described as follows: calculated from SPR kd, 10°C. On the procedure: as §1
For test [4] the target is unchanged. Kind of test: SPR Biacore T200, antibody captured, LRRC15 analyte, 20°C. As to the method:
as §1

For test [5] the target is unchanged. Kind of test: calculated from SPR kd, 25°C. On the procedure: as §1
Test [6] addresses T2, cynomolgus (Macaca fascicularis) LRRC15 extracellular domain with C-terminal His tag (cynomolgus monkey (Macaca fascicularis), UniProt Q8TF66 22-538 (human entry)).
T2 construct: Recombinant, made in HEK293; the entry holds the extracellular domain and the His tag; SPR analyte; also called TPP-9046
T2 chain: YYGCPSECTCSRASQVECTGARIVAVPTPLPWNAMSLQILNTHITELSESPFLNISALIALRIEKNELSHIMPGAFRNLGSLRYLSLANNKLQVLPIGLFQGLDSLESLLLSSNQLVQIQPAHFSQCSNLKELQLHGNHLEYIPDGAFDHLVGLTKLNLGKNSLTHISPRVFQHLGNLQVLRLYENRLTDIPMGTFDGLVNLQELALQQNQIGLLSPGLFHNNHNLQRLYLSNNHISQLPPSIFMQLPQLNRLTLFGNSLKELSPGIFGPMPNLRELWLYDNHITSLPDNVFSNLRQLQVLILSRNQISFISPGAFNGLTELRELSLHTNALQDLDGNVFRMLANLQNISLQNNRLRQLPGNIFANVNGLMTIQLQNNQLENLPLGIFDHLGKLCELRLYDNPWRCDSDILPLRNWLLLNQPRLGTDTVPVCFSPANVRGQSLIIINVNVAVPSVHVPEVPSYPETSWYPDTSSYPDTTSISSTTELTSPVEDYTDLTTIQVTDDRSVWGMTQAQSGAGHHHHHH
The test is described as follows: SPR Biacore T200, 25°C, antibody captured, LRRC15 analyte. As to the method: (§2) To assess the binding kinetics and affinity of anti-LRRC15 antibodies as well as their species cross-reactivity profile, binding assays were conducted using surface plasmon resonance (SPR). Binding assays were performed on a Biacore T200 instrument at 25° C. using assay buffer HBS EP+, 1 mg/ml BSA, 300 mM NaCl, 0.05% NaN3. Antibodies were captured via anti-human Fc IgGs covalently amine coupled to a CM5 sensor chip and human, mouse and cynomolgus LRRC15 were used as analytes in a concentration series from 1.56-200 nM in multi cycle kinetics mode. […] Obtained sensorgrams were fitted to a 1:1 Langmuir binding model to derive kinetic data.

The target of test [7] is T1, human LRRC15 extracellular domain with …. The description is as above. On the procedure: as §2
Test [8] has the same target. The test is described as follows: SPR at 10-37°C (Example 3). As to the method: as §1
The target of test [9] is T2, cynomolgus (Macaca fascicularis) LRRC15 …. The test is described as follows: SPR (Example 6), overview table, repeats Table 9; head prints [M^-1]. On the procedure:
as §2

Test [10] concerns the target T1, human LRRC15 extracellular domain with …. Described as above. On the procedure:
as §2

Test [11] shares this target. The test is described as follows: SPR Biacore T200, antibody captured, LRRC15 analyte, 25°C. As to the method:
as §1

B1: TPP-1633 (antibody, human IgG1, kappa, V domains shown)
VH: EVQLLESGGGLVQPGGSLRLSCAASGFTFSGYMMQWVRQAPGKGLEWVSGIYPSGGYTNYADSVKGRFTISRDNSKNTLYLQMNSLRAEDTATYYCAREKASDLSGSYSEALDYWGQGTLVTVSS
VL: DIQMTQSPDSLSASVGDRVTITCRASQDVGSWLAWYQQKPGKAPKLLIFAASSLESGIPSRFSGSGSGTDFTLTISSLQPEDFATYYCQQANGFPLTFGGGTKVEIKR
notes: also called 060E-M016-G14-hIgG1
Consider B1, for which the dissociation constant Kd was 18 nM in [1]; around 200 nM in [2]; 80 nM in test [4]; 190 nM in [6]; 150 nM in test [7]; 190 nM in test [9]. For the same molecule, the Kd was found to be 150 nM in test [10] and 160 nM in test [11]. For the same molecule, the “Complex Half Life” value in [3] was 8.3 min; in test [5], 0.5 min. The “Temperature dependent loss in binding affinity” value in test [8] was above 9 fold.
